Measured values published in article PMC11617674, “The activity of the ribonucleotide monophosphatase UmpH is controlled by interaction with the GlnK signaling protein in Escherichia coli” (The Journal of Biological Chemistry, 2024).

Columns and labels:
[1] = target: UmpH (ribonucleotide monophosphatase), untagged recombinant (E. coli) (UniProt P0AF24)
[2] = target: UmpH (ribonucleotide monophosphatase), untagged recombinant (E. coli) (UniProt P0AF24); remark: listed apart in the source
[3] = target: His-GlnK (E. coli PII signaling protein GlnK, N-terminal His tag) (E. coli) (UniProt P0AC55); assay: BLI; His-GlnK on Ni-NTA biosensor, UmpH as analyte; 20 mM Hepes pH 7.4, 50 mM KCl, 5 mM MgCl2, 2 mM DTT, 2 mM NAG; 1 mM ADP; 1:1 (GlnK trimer:UmpH monomer) model
[4] = target: His-GlnK (E. coli PII signaling protein GlnK, N-terminal His tag) (E. coli) (UniProt P0AC55); assay: BLI; His-GlnK on Ni-NTA biosensor, UmpH as analyte; 20 mM Hepes pH 7.4, 50 mM KCl, 5 mM MgCl2, 2 mM DTT, 2 mM NAG; 1 mM ATP; 1:1 (GlnK trimer:UmpH monomer) model
[5] = target: His-GlnK (E. coli PII signaling protein GlnK, N-terminal His tag) (E. coli) (UniProt P0AC55); assay: BLI; His-GlnK on Ni-NTA biosensor, UmpH as analyte; 20 mM Hepes pH 7.4, 50 mM KCl, 5 mM MgCl2, 2 mM DTT, 2 mM NAG; no effector; 1:1 (GlnK trimer:UmpH monomer) model

Chain of His-GlnK (E. coli PII signaling protein GlnK, N-terminal His tag) (E. coli) (P0AC55 whole entry): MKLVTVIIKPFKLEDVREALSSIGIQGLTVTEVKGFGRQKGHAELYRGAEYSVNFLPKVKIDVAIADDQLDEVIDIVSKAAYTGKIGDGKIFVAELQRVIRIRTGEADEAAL
Chain of UmpH (ribonucleotide monophosphatase), untagged recombinant (E. coli) (P0AF24 whole entry): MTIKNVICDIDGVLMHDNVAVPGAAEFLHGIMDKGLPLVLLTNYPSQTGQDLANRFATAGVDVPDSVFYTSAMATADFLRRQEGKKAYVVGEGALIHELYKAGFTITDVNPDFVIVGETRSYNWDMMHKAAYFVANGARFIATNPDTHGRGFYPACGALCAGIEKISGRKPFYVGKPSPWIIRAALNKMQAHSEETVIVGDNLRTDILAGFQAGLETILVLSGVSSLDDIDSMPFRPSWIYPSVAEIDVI

| Substance | UmpH Vmax (phosphate release from UMP), decrease in the presence of 2 μM GlnK trimer, 0.56 μM UmpH monomer, no GlnK effectors [1] [%] | UmpH catalytic efficiency (Vmax/KM) for UMP, decrease in the presence of 2 μM GlnK trimer, 0.56 μM UmpH monomer, no GlnK effectors [1] [%] | inhibition of UmpH phosphatase activity (0.5 mM UMP, 0.1 mM ADP, 0.56 μM UmpH) against increasing GlnK trimer up to 2 μM [2] [%] | Kd [3] [nM] | Kd [4] [nM] | Kd [5] [nM] |
| --- | --- | --- | --- | --- | --- | --- |
| His-GlnK (E. coli PII signaling protein GlnK, N-terminal His tag) (from UniProt P0AC55 1-112) (natural protein) | 30 | 68 | 50 | – | – | – |
| UmpH (ribonucleotide monophosphatase), untagged recombinant (from UniProt P0AF24 1-250) (enzyme) | – | – | – | 7.8 | 37.3 | 50.6 |
